Data on 6 molecules can be found in patent US20210123036A1 (UNIVERSITY OF LIVERPOOL, published 2021).

For assay [1], the target named is type II collagen gelatin. The assay is described as follows: cell-based or functional assay.
Assay [2] concerns the target type I collagen gelatin (skin gelatin). The assay is described as follows: ELISA-type plate binding assay, biotinylated protein on gelatin-coated plate. Background: In an ELISA, binding on a coated surface is turned into a signal by an enzyme label.
For assay [3], the target named is T1, type II collagen gelatin.
T1 construct: Denatured collagen, coated on plates (ELISA-type assay, cell adhesion) or added in solution (NMR); also called type II gelatin; collagen type II gelatin
The description is as above.

Assay [4] has as its target T1, type II collagen gelatin. The assay is described as follows: ELISA-type plate binding assay, comparison of Kd. The procedure: The chimeric peptides were assessed for binding to collagen type I and type II gelatin using the plate binding assay (described in the materials and methods section). […] A peptide comprising three modules corresponding to module 1 was not tested.

The target of assay [5] is T1, type II collagen gelatin. The assay is described as follows: ELISA-type plate binding assay, comparison of Kd (summary of the Examples).
For assay [6], the target named is type I collagen gelatin (skin gelatin). The assay is described as follows: ELISA-type plate binding assay, comparison of apparent Kd.

Where no end group is shown, it is not given here.

One may read the Kd as the equilibrium constant for the complex coming apart. Low readings indicate tighter binding, high ones weaker binding.

type I collagen gelatin (skin gelatin), sequence (P02453 162-1217, chain 1 of 2): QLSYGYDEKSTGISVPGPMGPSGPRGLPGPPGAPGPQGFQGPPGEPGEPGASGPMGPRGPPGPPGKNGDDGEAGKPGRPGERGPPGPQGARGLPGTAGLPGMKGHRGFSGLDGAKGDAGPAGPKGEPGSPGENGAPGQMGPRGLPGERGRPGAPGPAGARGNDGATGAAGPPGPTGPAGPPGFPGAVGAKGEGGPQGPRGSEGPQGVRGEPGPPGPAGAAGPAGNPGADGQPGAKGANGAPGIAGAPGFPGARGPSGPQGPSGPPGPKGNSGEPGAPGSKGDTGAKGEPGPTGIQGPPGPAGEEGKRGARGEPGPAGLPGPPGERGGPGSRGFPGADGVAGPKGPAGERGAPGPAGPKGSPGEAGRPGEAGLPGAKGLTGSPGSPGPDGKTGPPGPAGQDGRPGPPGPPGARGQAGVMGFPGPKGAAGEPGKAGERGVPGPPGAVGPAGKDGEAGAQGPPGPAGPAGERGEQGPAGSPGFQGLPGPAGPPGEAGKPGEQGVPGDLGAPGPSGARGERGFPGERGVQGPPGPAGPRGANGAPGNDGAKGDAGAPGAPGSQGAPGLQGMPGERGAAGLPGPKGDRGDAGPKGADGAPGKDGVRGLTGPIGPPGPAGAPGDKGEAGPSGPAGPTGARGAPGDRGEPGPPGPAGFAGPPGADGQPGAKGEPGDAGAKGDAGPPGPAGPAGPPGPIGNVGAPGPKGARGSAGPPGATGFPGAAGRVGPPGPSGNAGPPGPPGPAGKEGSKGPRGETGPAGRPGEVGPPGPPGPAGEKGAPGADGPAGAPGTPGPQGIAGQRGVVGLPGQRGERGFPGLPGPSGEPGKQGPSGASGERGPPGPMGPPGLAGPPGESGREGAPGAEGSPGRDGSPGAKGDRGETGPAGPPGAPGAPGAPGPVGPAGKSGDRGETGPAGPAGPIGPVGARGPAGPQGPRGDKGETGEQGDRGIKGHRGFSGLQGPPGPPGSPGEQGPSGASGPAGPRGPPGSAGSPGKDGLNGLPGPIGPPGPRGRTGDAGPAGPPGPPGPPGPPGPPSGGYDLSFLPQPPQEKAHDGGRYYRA
type I collagen gelatin (skin gelatin), sequence (P02465 80-1117, chain 2 of 2, further chain): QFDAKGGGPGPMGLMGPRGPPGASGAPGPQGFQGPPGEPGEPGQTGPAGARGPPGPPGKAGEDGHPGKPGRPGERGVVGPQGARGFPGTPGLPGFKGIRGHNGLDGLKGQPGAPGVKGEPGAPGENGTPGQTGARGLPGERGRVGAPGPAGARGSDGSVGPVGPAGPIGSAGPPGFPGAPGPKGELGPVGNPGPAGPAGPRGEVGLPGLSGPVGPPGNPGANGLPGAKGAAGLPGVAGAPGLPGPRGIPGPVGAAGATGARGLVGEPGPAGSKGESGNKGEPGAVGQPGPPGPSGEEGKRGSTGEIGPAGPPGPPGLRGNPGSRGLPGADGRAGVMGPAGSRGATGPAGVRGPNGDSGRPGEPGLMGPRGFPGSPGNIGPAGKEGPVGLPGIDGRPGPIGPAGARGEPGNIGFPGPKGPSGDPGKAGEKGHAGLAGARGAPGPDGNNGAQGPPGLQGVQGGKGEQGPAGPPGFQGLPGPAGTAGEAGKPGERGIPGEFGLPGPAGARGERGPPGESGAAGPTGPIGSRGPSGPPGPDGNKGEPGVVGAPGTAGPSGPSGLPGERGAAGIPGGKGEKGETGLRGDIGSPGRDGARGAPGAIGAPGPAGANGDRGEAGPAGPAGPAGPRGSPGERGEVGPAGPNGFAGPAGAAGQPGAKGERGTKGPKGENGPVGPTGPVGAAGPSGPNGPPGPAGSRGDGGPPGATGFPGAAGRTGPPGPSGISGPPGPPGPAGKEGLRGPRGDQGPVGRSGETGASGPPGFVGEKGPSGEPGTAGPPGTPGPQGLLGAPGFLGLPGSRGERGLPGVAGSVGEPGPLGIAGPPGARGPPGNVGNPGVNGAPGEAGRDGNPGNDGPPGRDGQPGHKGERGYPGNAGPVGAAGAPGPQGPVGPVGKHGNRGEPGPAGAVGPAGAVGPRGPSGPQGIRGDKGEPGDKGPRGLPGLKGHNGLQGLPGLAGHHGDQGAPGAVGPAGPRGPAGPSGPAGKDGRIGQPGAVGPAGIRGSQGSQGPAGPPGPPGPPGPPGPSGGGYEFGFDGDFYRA

B1: conjugate comprising MSCs and the peptide 222 (other)
chain: EGQVVFTMYGNAEGQPCKFPFRFQGTSYDSCTTEGRTDGYRWCGTTEDYDRDKKYGFCPHEALFTMGGNAEGQPCKFPFRFQGTSYDSCTTEGRTDGYRWCGTTEDYDRDKKYGFCPETALFTMGGNAEGQPCKFPFRFQGTSYDSCTTEGRTDGYRWCGTTEDYDRDKKYGFCPDQGYSL
modifications: carboxylic residues cationised by covalent coupling of N,N'-dimethyl-1,3-propanediamine (DMPA); corona of glycolic acid ethoxylate 4-nonylphenyl ether surfactant; incorporated into the membrane of mesenchymal stem cells
For B1, the “median % adhesion relative to plastic” value with type II collagen gelatin [1] was found to be 224%.

B2: peptide 222 comprising three modules corresponding to module 2 of the CBD of MMP-2 (designed binder)
chain: EGQVVFTMYGNAEGQPCKFPFRFQGTSYDSCTTEGRTDGYRWCGTTEDYDRDKKYGFCPHEALFTMGGNAEGQPCKFPFRFQGTSYDSCTTEGRTDGYRWCGTTEDYDRDKKYGFCPETALFTMGGNAEGQPCKFPFRFQGTSYDSCTTEGRTDGYRWCGTTEDYDRDKKYGFCPDQGYSL
notes: Expressed in Shuffle cells with a His6-SUMO tag that was cleaved off
For the molecule B2, the Kd in assay [2] was found to be 0.497 nM. The Kd in the assay with type II collagen gelatin [3] came out at 1.46 nM. Moreover, in the assay with type II collagen gelatin [4], the “fold higher affinity than 333” value is 10 fold and the “fold higher affinity than the full length CBD” value turned out to be 10 fold. In the assay with type II collagen gelatin [5], the “fold higher affinity than the naturally occurring CBD of MMP-2” value is around 14 fold.

B3: collagen binding domain (CBD) of gelatinase A (MMP-2) (other)
chain: ADGEYCKFPFLFNGKEYNSCTDTGRSDGFLWCSTTYNFEKDGKYGFCPHEALFTMGGNAEGQPCKFPFRFQGTSYDSCTTEGRTDGYRWCGTTEDYDRDKKYGFCPETAMSTVGGNSEGAPCVFPFTFLGNKYESCTSAGRSDGKMWCATTANYDDDRKWGFCPD
notes: Expressed in Shuffle T7 E. coli with a His6-SUMO tag that was cleaved off; also called CBD of MMP-2; Full length CBD
On to B3, for which the equilibrium dissociation constant (Kd) in assay [2] is 2.58 nM; with type II collagen gelatin [3], 20.4 nM.

B4: peptide 333 comprising three modules corresponding to module 3 of the CBD of MMP-2 (designed binder)
chain: EGQVVSTVYGNSEGAPCVFPFTFLGNKYESCTSAGRSDGFLWCATTANYDDDRKWGFCPHEALFTMGGNSEGAPCVFPFTFLGNKYESCTSAGRSDGKRWCATTANYDDDRKWGFCPETAMSTVGGNSEGAPCVFPFTFLGNKYESCTSAGRSDGKMWCATTANYDDDRKWGFCPDQGYSL
Turning to B4, the Kd in assay [2] came to 0.0159 nM; with type II collagen gelatin [3], 117 nM.

Consider AEGQPCKFPFRFQGTSYDSCTTEGRTDGYRWCGTTEDYDRDKKYGFCPE (other, cysteine pairing not given here; also: biotinylated for plate binding assay, also called M2) [module 2 of the CBD of MMP-2], for which the Kd in assay [2] was 3720 nM; in the assay with type II collagen gelatin [3], 4260 nM.

Take SEGAPCVFPFTFLGNKYESCTSAGRSDGKMWCATTANYDDDRKWGFCPD (other, cysteine pairing not given here; also: biotinylated for plate binding assay, also called M3) [module 3 of the CBD of MMP-2]: the Kd amounted to 4090 nM in assay [2] and 12000 nM with type II collagen gelatin [3]. Besides, the “fold better binding than to type II gelatin” value in assay [6] is 3 fold.
